This passage reports response results from PMC10746174.

The target in this experiment is heme. The experiment in a line: UV-vis spectroscopy, as-purified Soret peak (412 nm). The following applies: 50 µg of purified protein, as-purified (black trace); parent: est. 0.32; read off a plot.

For the substance “CcmF:6×His wild type (from UniProt P33927) Y231A”, the response was determined as 0.18 Abs.
Regarding “CcmF:6×His wild type (from UniProt P33927) W229A”, the response came out at 0.2 Abs.
